In a protein production outcome set (Wang et al. 2014):

Experiment: label from the status in PepcDB records

MNTVDEDIKFKEVPGITNILLLSSDARPGEDVSRSDSIMILTIDNINKKLKVTSLMRDMLVKIDGHGEEKLNHAFAYGGPTKTIETIQNNFGIKLNNYVIVDFNAFVKVIDAINGIEVTVKDYELDELNKYILDGGGSEEDLLPSPGTYNLNGYQALSYARIRKVGNGEYERTERQRAVLQIALEKVKDMSTVKLVSLLNELFPYVKTNISLGNAMDYGFTALNVGKKCNFEIEQFRVPLDSISKGGIINNKGWVFVIDKVETSKALQEFIFNDNKNYEPDTSNFDSIIEQYFNDYDIKDDTTHPDYEYVPSINTNGNFEKPKNNSGNSSNNNSNNKVEKPSNQGNSVNSSNKPSNGSTSTGNNSTEKPNTSEKPSIPQETPTEKPLEHHHHHH
protein production: failed

MNTVPLKPQRLLSLDVFRGMTIVLMIFVNGQAAIDPYPIFEHVDWNGCTLADLVFPFFLFIVGLTSVISLKNQMERKAKTSLYSAIIERSVVLFLLGLFLNVFPHPIEFDSIRIYGILQRIAVCYLISAFIYLNTSIKTQFFIFLVLLLGYWIIMTQVPVPGYGANQLTKDGSWVSYFDQLFFSASHLYEKTYDPEGFLSTFTSIATTLSGVLAGSLLISPCNQFKKFYLLAGIGLLFLLLGWLWNMSFPINKNLWTSSYVLWTSGLALLAFAFCYLLIDRFGVKKWSVFFKVFGMNALFAFVFHVLLLKLQYAFKITTPDGSKMVLISYLKDYFFGGFSNHNAALLYSICFLFLNFLVVLILYKRNVFIRI
protein production: failed

MNTYLKNSPGFWIGRIHHKLKNRMNQRLKPYDLTAEQRLILLRLFEFGEMTQQQLCQKTFTEPSNITLTLRRMESHGYVRKKPHPKDKRASLIEATPKALSIQNELERIGLEITDSLLLEVDPSEKETLLRVLQAMYQKMLQEEAIEEFSF
protein production: failed

MNVEKLKRLQAQVRIGGKGTPRRKKKVMHQTAATDDKKLQSSLKKLSVSTIPGIEEVNIIKDDLTVIHFNNPKAQASLSANTFAVTGHGETRKVVEMLPDILPQLGQETVVQLRMYANAMNSQKGAPGSGDGPLPAEEDDDVPLLVGDFDEVAKVEATKQPVHEPKESAEIKAKDKQQQQPKKEQKQSAKVPETTNPSENPKEKQENKKGQAKNNKKGDPQTNKDKTNKSKDQAKGQPAPQANKETTQAAQALKQNPSKPAVQQKKDQVLAVDQKIEANGAIQKAQQPKPAETKSTDQKVEPKSAEKQVDKAKPIEQTKTKESKVEHPKPAQKQLDQNTQAKPTAERSEAKPVVPTPEPQKSAPPAVQTLAQIVALPAEKPANEAVAAPKAEEQKKDSSGPAKVEPAITPSAPQPVTTAEPPKSALKQDSPPKSAPKQGSPPKNVPKQESPPQSAPKQDSPPKGAPKQDSPPKGAPKQDSPPKGAPKQDSAPQQKTPPPVKQEVAPAKQDEPPAKQDAPPAKQDAPVPVPEVIKTLAPEVPNVSQAPAQPQGQAALASEKPADAPKAIEEPKAAPKKESPPPTKPVTATVPVAPATPAEAPSPLAPSTPPSTPTSVPPSAATVTPPSPATVTPPSPAVVTPPQKQSAAPQAGIKKQEAGTKTKQQQPANKPQQPQKQPPGGAGGSAGPGGNKGVQKQPNPNAKPAVAPKPAQATPKPAAASPKASPNQTNPQQQQGKAANKASPPKQTGPTGGQQKSAANASKATASPKSAASPKATSPKAGTPTNPASASGGPN
protein production: failed

MNVFAFSISGGGSERSYKETEKTSAMTTTHSTKLQPSQAILFKMREDAPPLNLTEEMPPPFPTKANYLIHPVRLEHHHHHH
protein production: failed
